Experimental data published in paper PMC9436803.

Key:
[1] = molecular target: Human IgG1 Fc (residues 216–447) (human); test: SPR; Biacore T200; IgG1 Fc amine-coupled to a CM5 chip (0.33 μg/ml); CD16a 0.04-5.12 μM flowed at 60 μl/min, contact 30 s, dissociation 250 s; 20 mM MOPS, 100 mM sodium chloride, 0.05% P20, pH 7.4, no bovine serum albumin; two-state kinetic model
[2] = molecular target: Human IgG1 Fc (residues 216–447) (human); test: SPR; Biacore T200; IgG1 Fc amine-coupled to a CM5 chip (1 μg/ml); CD16a 0.01-20.48 μM flowed at 10 μl/min; 20 mM MOPS, 100 mM sodium chloride, 1 μM bovine serum albumin, 0.05% P20, pH 7.4; dissociation constants from equilibrium responses; at least five measurements

## CD16a V158 S164A with complex-type N-glycans, lacking the N162 glycan (receptor)
[1]
  Kd: 109 nM
  ka1 (two-state model, major event): 1.4e+06 M⁻¹ s⁻¹
  ka2 (two-state model, minor event): 0.0014 s⁻¹
  kd1 (two-state model, major event): 0.18 s⁻¹
  kd2 (two-state model, minor event): 0.0078 s⁻¹
[2]
  Kd: 230 nM

## Fc γ receptor IIIa/CD16a F158 allotype with oligomannose (Man5GlcNAc2) N-glycans (from UniProt P08637 17-254)
[2]
  Kd: 1070 nM

## Fc γ receptor IIIa/CD16a V158 allotype with truncated (1)GlcNAc N-glycans
[1]
  Kd: 9.2 nM
  ka1 (two-state model, major event): 2.5e+06 M⁻¹ s⁻¹
  ka2 (two-state model, minor event): 0.0032 s⁻¹
  kd1 (two-state model, major event): 0.04 s⁻¹
  kd2 (two-state model, minor event): 0.0047 s⁻¹
[2]
  Kd: 22 nM

## CD16a F158 S164A, lacking the N162 glycan (receptor)
[2]
  Kd: 1470 nM

## Fc γ receptor IIIa/CD16a F158 allotype with truncated (1)GlcNAc N-glycans (from UniProt P08637 17-254)
[1]
  Kd: 52 nM
  ka1 (two-state model, major event): 1.1e+06 M⁻¹ s⁻¹
  ka2 (two-state model, minor event): 0.0018 s⁻¹
  kd1 (two-state model, major event): 0.079 s⁻¹
  kd2 (two-state model, minor event): 0.005 s⁻¹
[2]
  Kd: 126 nM

## Fc γ receptor IIIa/CD16a V158 allotype with complex-type N-glycans
[1]
  Kd: 76 nM
  ka1 (two-state model, major event): 170000 M⁻¹ s⁻¹
  ka2 (two-state model, minor event): 0.0061 s⁻¹
  kd1 (two-state model, major event): 0.025 s⁻¹
  kd2 (two-state model, minor event): 0.0066 s⁻¹
[2]
  Kd: 270 nM

## Fc γ receptor IIIa/CD16a V158 allotype with oligomannose (Man5GlcNAc2) N-glycans
[1]
  Kd: 55 nM
  ka1 (two-state model, major event): 710000 M⁻¹ s⁻¹
  ka2 (two-state model, minor event): 0.0049 s⁻¹
  kd1 (two-state model, major event): 0.071 s⁻¹
  kd2 (two-state model, minor event): 0.006 s⁻¹
[2]
  Kd: 86 nM
